These results are taken from patent US20240425569A1 (VISTERRA, published 2024).

Broadly, the Kd is the free concentration of one partner at which half of the binding sites on the other are occupied at equilibrium, for simple one-to-one binding. High values mean weaker binding, low ones tighter binding.

Where a chain is given by its changes, count along the chain named. In names and notes the source's numbering stands. Several values for one entry are separate records, joined by “and”; a condition that tells them apart may be missing. Identical values can stand only once. Like-named read-outs stand apart in the source and are kept apart here.

Assay [1] concerns the target T1, Mexico/1977 (BC287/97)* (serotype IV EDIII) (Dengue virus 4).
T1 construct: isolated EDIII protein; also called EDIII of DENV-4 Mexico/1997 (BC287/97); DENV-4 BC2
The experiment in a line: Kd table, method not stated; Ag DENV-4 BC2.

For assay [2], the target named is T2, Peru/1995 (serotype II EDIII).
T2 construct: also called ED3-DV2/Peru95; DENV-2 Peru
The experiment in a line: Kd table, method not stated; Ag DENV-2 Peru.

Assay [3] has as its target T3, Singapore/2010 (serotype IV EDIII).
T3 construct: also called ED3-DV4/Sing10; DENV-4 Sing
T3 E protein domain III (EDIII): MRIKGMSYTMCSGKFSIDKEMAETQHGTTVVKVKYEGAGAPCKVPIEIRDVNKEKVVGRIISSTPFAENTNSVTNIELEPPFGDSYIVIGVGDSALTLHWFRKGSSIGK
The experiment in a line: Kd table, method not stated; Ag DENV-4 Sing.

Assay [4] addresses T4, New Caledonia/2009 (serotype IV EDIII).
T4 construct: also called ED3-DV4/NewCal09; DENV-4 NC
T4 E protein domain III (EDIII): T3 E protein domain III (EDIII) with V44I, T74I
The assay is described as follows: Kd table, method not stated; Ag DENV-4 NC.

Assay [5] deals with T5, New Guinea/1944 (NGC)* (serotype II EDIII) (Dengue virus 2).
T5 construct: isolated EDIII protein; also called EDIII of DENV-2 NGC
The experiment in a line: Kd table, method not stated; Ag DENV-2 NGC.

The target of assay [6] is T6, Singapore/2008 (serotype II EDIII).
T6 construct: also called ED3-DV2/Sing08; DENV-2 Sing
The assay is described as follows: Kd table, method not stated; Ag DENV-2 Sing.

The target in assay [7] is T7, Nicaragua/2010 (serotype III EDIII).
T7 construct: also called ED3-DV3/Nicaragua10; DENV-3 Nic
T7 E protein domain III (EDIII): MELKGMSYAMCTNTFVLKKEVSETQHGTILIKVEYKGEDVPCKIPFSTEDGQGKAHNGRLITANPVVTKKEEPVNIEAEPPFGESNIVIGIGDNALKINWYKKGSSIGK

In assay [8] the target is T8, Philippines/1956 (H87)* (serotype III EDIII) (Dengue virus 3).
T8 construct: isolated EDIII protein

Assay [9] deals with ED3-DV4/H241/Phil56 (EDIII of DENV-4 strain H241) (dengue virus serotype DENV-4, strain …, UniProt Q58HT7 572-679). The experiment in a line: Kd table, method not stated; Ag DENV-4 Phil.
Assay [10] has as its target T9, EDIII-DV1 (E protein domain III of dengue virus serotype DV-1) (dengue virus serotype DV-1, UniProt P17763 573-680).
T9 construct: also called DENV-1; EDIII of DV-1
T9 chain: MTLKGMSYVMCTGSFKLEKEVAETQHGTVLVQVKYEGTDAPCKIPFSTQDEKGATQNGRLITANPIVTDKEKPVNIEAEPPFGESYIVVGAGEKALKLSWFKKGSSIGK
The assay is described as follows: competition ELISA. Background: In an ELISA, binding on a coated surface is turned into a signal by an enzyme label.

Assay [11] has as its target T10, EDIII-DV3 (E protein domain III of dengue virus serotype DV-3) (dengue virus serotype DV-3, UniProt P27915 571-678).
T10 construct: also called DENV-3; EDIII of DV-3
The assay is described as follows: competition ELISA.

In assay [12] the target is T9, EDIII-DV1 (E protein domain III of …).
Assay [13] concerns the target T11, EDIII-DV2 (E protein domain III of dengue virus serotype DV-2) (dengue virus serotype DV-2, UniProt P14337 573-677).
T11 construct: also called DENV-2; EDIII of DV-2

The target in assay [14] is T10, EDIII-DV3 (E protein domain III of …).
For assay [15], the target named is T12, Singapore/2009 (serotype III EDIII).
T12 construct: also called ED3-DV3/Sing09; DENV-3 Sing
T12 E protein domain III (EDIII): T7 E protein domain III (EDIII) with T12Q, T14A, V40A, N94K

For assay [16], the target named is T13, EDIII-DV4 (E protein domain III of dengue virus serotype DV-4) (dengue virus serotype DV-4, UniProt P09866 572-679).
T13 construct: also called DENV-4

Assay [17] addresses T13, EDIII-DV4 (E protein domain III of …). This is another data set of the same source.
In assay [18] the target is T10, EDIII-DV3 (E protein domain III of …). This is another data set of the same source.
Assay [19] deals with T13, EDIII-DV4 (E protein domain III of …). This is another data set of the same source.
Assay [20] has the same target. This is another data set of the same source.

B1: antibody A11 (antibody, V domains shown)
VH: VKLLEQSGAELVKPGASVRLSCTASGFNIKDTYMSWVKQRPEQGLEWIGRIDPENGDTKYDPKFQGKATITADTSSNTAYLHLSSLTSGDTAVYYCSRGWEGFAYWGQGTLVTVSA
VL: ELVMTQTPASLAVSLGQRATISCRASENVDKYGNSFMHWYQQKAGQPPKLLIYRASELQWGIPARFSGSGSRTDFTLTINPVEADDVATYFCQRSNEVPWTFGGGTKLEIK
notes: also called mAb A11; 4E5A
Regarding B1, the Kd in assay [1] is 86.2 nM; in assay [2] it was 0.39 nM; in assay [3], 136 nM; in assay [4], 202 nM; in [5] it was < 0.1 nM; in assay [6], < 0.1 nM. Besides, the dissociation constant Kd in assay [7] was 32.1 nM; in [8] it was 14.1 nM; in assay [9] it was 5080 nM; in assay [10] it was 0.35 nM and 0.269 nM; in [11], 16.8 nM and 18 nM; in assay [12], 0.269 nM. In addition, the dissociation constant (Kd) in [13] was < 0.1 nM; in assay [14], 18 nM; in assay [15], 7.5 nM.

B2: C41 (antibody, V domains shown)
VH: B1 VH with T32V
VL: B1 VL
Turning to B2, in [16], binding was characterised by a dissociation constant (Kd) of 2.56 nM.

B3: antibody B48 (antibody, V domains shown)
VH: QVQLVQSGAEVKKPGASVKVSCKAGFNIKDTYMSWVRQAPEQGLEWMGRIDPENGDTKYDPKLQGRVTMTADTSTNTAYMELRSLRSDDTAVYYCARGWEGFAYWGQGTLVTVSS
VL: DIVMTQSPASLAVSLGERATISCRASENVDKYGNSFMHWYQQKPGQPPKLLIYRASELQWGVPDRFSGSGSGTDFTLTISSLQAEDVAVYYCQRSNEVPWTFGQGTKLEIK
notes: also called mAb B48
Turning to B3, the Kd in assay [16] stood at 19.3 nM; in assay [12], 0.123 nM; in assay [14], 8 nM; in assay [17], 27.6 nM.

B4: antibody A48 (antibody, V domains shown)
VH: QVQLVQSGAEVKKPGASVKVSCKASGFNIKDTYMSWVRQAPEQGLEWMGRIDPENGDTKYDPKLQGRVTMTADTSTNTAYMELRSLRSDDTAVYYCARGWEGFAYWGQGTLVTVSS
VL: B3 VL
Turning to B4, the Kd in assay [12] is < 0.1 nM; in assay [14] it was 5.8 nM.

B5: B48+InsE6 (antibody, V domains shown)
VH: B3 VH with Q1V, V2Q, Q3L, L4V, V5E
VL: B3 VL
The molecule B5 had an equilibrium dissociation constant (Kd) in assay [16] of 26.9 nM.

B6: D178 (antibody, V domains shown)
VH: B3 VH with T31V, A96V
VL: B3 VL
On to B6, for which the Kd in assay [18] was 1.05 nM; in assay [19], 4.67 nM.

B7: A48+InsE6 (antibody, V domains shown)
VH: B4 VH with Q1V, V2Q, Q3L, L4V, V5E, T32V
VL: B3 VL
On to B7, for which, in [16], binding was characterised by a dissociation constant (Kd) of 19.5 nM.

B8: antibody D148 (antibody, V domains shown)
VH: B4 VH with G26Y, T32V
VL: B3 VL
B8: binding in assay [20] was put at a Kd of 18 nM.

B9: antibody D108 (antibody, V domains shown)
VH: B4 VH with G26Y, F27W, T32V
VL: B3 VL
For the molecule B9, in [20], the Kd turned out to be 18.3 nM.

B10: antibody D128 (antibody, V domains shown)
VH: B4 VH with G26A, F27W, T32V
VL: B3 VL
Turning to B10, the Kd in assay [20] was found to be 20.8 nM.

B11: D168 (antibody, V domains shown)
VH: B4 VH with F27Y, T32V
VL: B3 VL
Take B11: the dissociation constant Kd in [20] came out at 324 nM.

B12: B48+V2L (antibody, V domains shown)
VH: B3 VH with V2L
VL: B3 VL
On to B12, for which the dissociation constant (Kd) in assay [16] stood at 23.6 nM.

B13: C128 (antibody, V domains shown)
VH: B4 VH with T32V, A97S
VL: B3 VL
As to B13, the Kd in assay [18] stood at 0.63 nM; in [19] it was 18.7 nM.

B14: A48+V2L (antibody, V domains shown)
VH: B4 VH with V2L, T32V
VL: B3 VL
B14: in [16], the Kd was 21.3 nM.

B15: A68 (A48 + A98V) (antibody, V domains shown)
VH: B4 VH with A97V
VL: B3 VL
B15: the Kd was < 0.1 nM in assay [13], 3 nM in assay [14] and 13.1 nM in assay [17].
